Experimental data from PMC10696041 (2023).

B1: MBP-CUB1CUB2 domains of PCPE-2, WT [human] / bone morphogenetic protein-1 [human] (parent complex)
chain 1: QSPERPVFTCGGILTGESGFIGSEGFPGVYPPNSKCTWKITVPEGKVVVLNFRFIDLESDNLCRYDFVDVYNGHANGQRIGRFCGTFRPGALVSSGNKMMVQMISDANTAGNGFMAMFSAAEPNERGDQYCGGLLDRPSGSFKTPNWPDRDYPAGVTCVWHIVAPKNQLIELKFEKFDVERDNYCRYDYVAVFNGGEVNDARRIGKYCGDSPPAPIVSERNELLIQFLSDLSLTADGFIGHYIFRPK
chain 2: AATSRPERVWPDGVIPFVIGGNFTGSQRAVFRQAMRHWEKHTCVTFLERTDEDSYIVFTYRPCGCCSYVGRRGGGPQAISIGKNCDKFGIVVHELGHVVGFWHEHTRPDRDRHVSIVRENIQPGQEYNFLKMEPQEVESLGETYDFDSIMHYARNTFSRGIFLDTIVPKYEVNGVKPPIGQRTRLSKGDIAQARKLYKCPACGETLQDSTGNFSSPEYPNGYSAHMHCVWRISVTPGEKIILNFTSLDLYRSRLCWYDYVEVRDGFWRKAPLRGRFCGSKLPEPIVSTDSRLWVEFRSSSNWVGKGFFAVYEAICGGDVKKDYGHIQSPNYPDDYRPSKVCIWRIQVSEGFHVGLTFQSFEIERHDSCAYDYLEVRDGHSESSTLIGRYCGYEKPDDIKSTSSRLWLKFVSDGSINKAGFAVNFFKEVDECSRPNRGGCEQRCLNTLGSYKCSCDPGYELAPDKRRCEAACGGFLTKLNGSITSPGWPKEYPPNKNCIWQLVAPTQYRISLQFDFFETEGNDVCKYDFVEVRSGLTADSKLHGKFCGSEKPEVITSQYNNMRVEFKSDNTVSKKGFKAHFFSEKRPALQPPRGRPHQLKFRVQKRNRTPQ

Variants of: B1
Assay: SPR; 50 nM MBP-CUB1CUB2; immobilized BMP-1 (1302 and 1492 RU); parent: 100; read off a plot

Variant | percent of parent
chain 1 F87A | ~84 % binding / WT
chain 1 R150A | ~90 % binding / WT
